Assay results from patent US20190241671A1 (Merck KGaA, published 2019).

T1: CD19 antigen on Daudi lymphoma cells (human, UniProt P15391 20-556)
T1 construct: whole, on cells; also called Daudi cells
T1 sequence (looked up): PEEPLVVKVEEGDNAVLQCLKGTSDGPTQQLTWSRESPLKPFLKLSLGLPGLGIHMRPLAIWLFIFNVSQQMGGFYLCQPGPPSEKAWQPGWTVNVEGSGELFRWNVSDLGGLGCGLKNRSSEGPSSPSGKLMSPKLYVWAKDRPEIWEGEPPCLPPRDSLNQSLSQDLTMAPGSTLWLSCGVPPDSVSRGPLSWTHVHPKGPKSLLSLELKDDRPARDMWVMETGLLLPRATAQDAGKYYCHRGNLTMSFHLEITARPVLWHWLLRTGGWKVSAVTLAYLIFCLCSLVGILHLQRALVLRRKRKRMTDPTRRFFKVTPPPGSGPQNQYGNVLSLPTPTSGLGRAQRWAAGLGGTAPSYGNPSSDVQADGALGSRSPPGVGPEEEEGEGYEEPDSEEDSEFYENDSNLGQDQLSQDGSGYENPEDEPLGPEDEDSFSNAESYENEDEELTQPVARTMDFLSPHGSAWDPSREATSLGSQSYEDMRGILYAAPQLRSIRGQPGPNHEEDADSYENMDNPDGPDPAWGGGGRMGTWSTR


Tests used:
[1] = molecular target: T1, CD19 antigen on Daudi lymphoma cells; test: FACS competition on Daudi cells; unlabeled antibody 400 ng/ml (4x) vs competitor biotin-B4 VH0/VK0 100 ng/ml
Experimental: (§1) Briefly, a titration series was prepared of biotin-labeled B4 VH0/VK0 antibody pre-mixed at a final concentration of 100 ng/ml with one of the unlabeled, experimental B4 VHvx/VKvy antibodies at 800 ng/ml, 400 ng/ml, 200 ng/ml, 100 ng/ml, and 50 ng/ml in a PBS/2% serum buffer. As a control, the biotin-labeled antibody was pre-mixed with unlabeled B4 VH0/VK0 antibody at the same concentrations as above (inhibition control) or with buffer only (positive binding control). The combined antibodies were added to Daudi cells for 30 minutes at 4° C. A 1:200 dilution of FITC-labeled streptavidin was added to the cells and the samples were incubated for a further 30 minutes at 4° C. Bound amount of labeled B4 VH0/VK0 antibody was quantitated by FACS analysis, and the results were expressed as “percent inhibition,” relative to the positive binding control. The tested antibodies were B4 VH0/VK0 (C), B4 VHv1/VKv1 (1), B4 VHv2/VKv1 (2), B4 VHv1/VKv2 (3), B4 VHv2/VKv2 (4), B4 VHv3/VKv3 (5), B4 VHv4/VKv3 (6), B4 VHv3/VKv4 (7), B4 VHv4/VKv4 (8), B4 VHv5/VKv4 (9), and B4 VHv6/VKv4 (10).

[2] = molecular target: T1, CD19 antigen on Daudi lymphoma cells; test: FACS competition on Daudi cells; unlabeled antibody 100 ng/ml (1x) vs competitor biotin-B4 VH0/VK0 100 ng/ml
Experimental: as §1

[3] = molecular target: T1, CD19 antigen on Daudi lymphoma cells; test: FACS competition on Daudi cells; unlabeled antibody 800 ng/ml (8x) vs competitor biotin-B4 VH0/VK0 100 ng/ml
Experimental: as §1

[4] = molecular target: T1, CD19 antigen on Daudi lymphoma cells; test: FACS competition on Daudi cells; unlabeled antibody 200 ng/ml (2x) vs competitor biotin-B4 VH0/VK0 100 ng/ml
Experimental: as §1

[5] = molecular target: T1, CD19 antigen on Daudi lymphoma cells; test: FACS competition on Daudi cells; unlabeled antibody 50 ng/ml (0.5x) vs competitor biotin-B4 VH0/VK0 100 ng/ml
Experimental: as §1

[6] = molecular target: T1, CD19 antigen on Daudi lymphoma cells; test: as above; remark: listed apart in the source
Experimental: as §1

[7] = molecular target: T1, CD19 antigen on Daudi lymphoma cells; test: FACS competition on Daudi cells; unlabeled antibody 200 ng/ml (2x) vs competitor biotin-B4 VH0/VK0 100 ng/ml; remark: listed apart in the source
Experimental: as §1

[8] = molecular target: T1, CD19 antigen on Daudi lymphoma cells; test: FACS competition on Daudi cells; unlabeled antibody 800 ng/ml (8x) vs competitor biotin-B4 VH0/VK0 100 ng/ml; remark: listed apart in the source
Experimental: as §1

[9] = molecular target: T1, CD19 antigen on Daudi lymphoma cells; test: FACS competition on Daudi cells; unlabeled antibody 400 ng/ml (4x) vs competitor biotin-B4 VH0/VK0 100 ng/ml; remark: listed apart in the source
Experimental: as §1

[10] = molecular target: T1, CD19 antigen on Daudi lymphoma cells; test: FACS competition on Daudi cells; unlabeled antibody 100 ng/ml (1x) vs competitor biotin-B4 VH0/VK0 100 ng/ml; remark: listed apart in the source
Experimental: as §1

Binder | % inhibition of labeled B4 binding [1] [%] | % inhibition of labeled B4 binding [2] [%] | % inhibition of labeled B4 binding [3] [%] | % inhibition of labeled B4 binding [4] [%] | % inhibition of labeled B4 binding [5] [%] | % inhibition of labeled B4 binding [6] [%] | % inhibition of labeled B4 binding [7] [%] | % inhibition of labeled B4 binding [8] [%] | % inhibition of labeled B4 binding [9] [%] | % inhibition of labeled B4 binding [10] [%]
B4 VHv6/VKv4 antibody (antibody, V domains shown, also called 10) VH: QVQLEQPGAEVVKPGASVKVSCKTSGYTFTSNWMHWVKQRPGQGLEWIGEIDPSDSYTNYNQKFDGKAKLTVDKSSSTAYMEVSDLTSEDSATYYCARGSNPYYYAMDYWGQGTSVTVSS VL: QIVLTQSPATLSASPGEKATMTCSASSGVNYMHWYQQKPGTSPKRWIYDTDKTASGVPARFSGSGSGTSYSLTISSMEAEDAATYYCHQRGSYTFGGGTKLEIK | 80 | 60 | 87 | 70 | 53 | – | – | – | – | –
B4 VHv2/VKv2 antibody (antibody, V domains shown) VH: QVQLQQPGAEVVKPGASVRLSCKTSGYTFTSNWMHWVKQRPGQGLEWIGEIDPSDSYTNYNQKFKGKAELTVDKSSSTAYMEVSDLTSEDSAVYYCARGSNPYYYAMDYWGQGTSVTVSS VL: DIVLTQSPATLSASPGEKVTMTCSASSGVNYMHWYQQKPGTSPKRWIYDTSKLDSGVPARFSGSGSGTSYSLTISSMEAEDAATYYCHQRGSYTFGGGTKLEIK | – | – | – | – | – | 8 | 32 | 56 | 44 | 16
B4 VHv3/VKv3 antibody (antibody, V domains shown) VH: QVQLEQPGAEVKKPGASVKVSCKASGYTFTSNWMHWVKQRPGQGLEWIGEIDPSDSYTNYNQKFKGKAKLTVDKSSSTAYMEVSDLTAEDSAVYYCARGSNPYYYAMDYWGQGTSVTVSS VL: QIVLTQSPATLSASPGEKATMTCSASSGANYMHWYQQKPGTSPKRWIYDTSKLASGVPARFSGSGSGTSYSLTIESMEAEDAATYYCHQRGSYTFGGGTKLEIK | – | – | – | – | – | 12 | 36 | 60 | 40 | 20
B4 VHv3/VKv4 antibody (antibody, V domains shown) VH: QVQLEQPGAEVKKPGASVKVSCKASGYTFTSNWMHWVKQRPGQGLEWIGEIDPSDSYTNYNQKFKGKAKLTVDKSSSTAYMEVSDLTAEDSAVYYCARGSNPYYYAMDYWGQGTSVTVSS VL: QIVLTQSPATLSASPGEKATMTCSASSGVNYMHWYQQKPGTSPKRWIYDTDKTASGVPARFSGSGSGTSYSLTISSMEAEDAATYYCHQRGSYTFGGGTKLEIK | – | – | – | – | – | 12 | 36 | 60 | 52 | 20
B4 VHv4/VKv3 antibody (antibody, V domains shown) VH: QVQLEQPGAEVVKPGASVKVSCKTSGYTFTSNWMHWVKQTPGKGLEWIGEIDPSDSYTNYNQKFDGKAKLTVDKSSSTAYMEVSDLTAEDSATYYCARGSNPYYYAMDYWGQGTSVTVSS VL: QIVLTQSPATLSASPGEKATMTCSASSGANYMHWYQQKPGTSPKRWIYDTSKLASGVPARFSGSGSGTSYSLTIESMEAEDAATYYCHQRGSYTFGGGTKLEIK | – | – | – | – | – | 12 | 32 | 56 | 44 | 16
B4 VHv4/VKv4 antibody (antibody, V domains shown) VH: QVQLEQPGAEVVKPGASVKVSCKTSGYTFTSNWMHWVKQTPGKGLEWIGEIDPSDSYTNYNQKFDGKAKLTVDKSSSTAYMEVSDLTAEDSATYYCARGSNPYYYAMDYWGQGTSVTVSS VL: QIVLTQSPATLSASPGEKATMTCSASSGVNYMHWYQQKPGTSPKRWIYDTDKTASGVPARFSGSGSGTSYSLTISSMEAEDAATYYCHQRGSYTFGGGTKLEIK | – | – | – | – | – | 12 | 32 | 60 | 48 | 16
B4 VHv5/VKv4 antibody (antibody, V domains shown) VH: QVQLEQPGAEVKKPGASVKVSCKASGYTFTSNWMHWVRQAPGKGLEWIGEIDPSDSYTNYNQKFDGKAKLTVDKSSSTAYMEVSDLTSEDSATYYCARGSNPYYYAMDYWGQGTSVTVSS VL: QIVLTQSPATLSASPGEKATMTCSASSGVNYMHWYQQKPGTSPKRWIYDTDKTASGVPARFSGSGSGTSYSLTISSMEAEDAATYYCHQRGSYTFGGGTKLEIK | 87 | 57 | 90 | 70 | 47 | – | – | – | – | –
B4 VHv1/VKv1 antibody (antibody, V domains shown) VH: QVQLQQPGAEVVKPGASVRLSCETSGYTFTSNWMHWVKQRPDQGLEWIGEIDPSDSYTNYNQKFKGKAELTVDKSSSTAYMEVSDLTSEDSAVYYCARGSNPYYYAMDYWGQGTSVTVSS VL: QIALTQEPAIMSASPGEKVTMTCSASSGVNYMHWYQQKPGTSPKRWIYDTSKLDSGVPARFSGSGSGTSYSLTISSMEAEDAATYYCHQRGSYTFGGGTKLEIK | – | – | – | – | – | 12 | 28 | 56 | 44 | 16
B4 VHv2/VKv1 antibody (antibody, V domains shown) VH: QVQLQQPGAEVVKPGASVRLSCKTSGYTFTSNWMHWVKQRPGQGLEWIGEIDPSDSYTNYNQKFKGKAELTVDKSSSTAYMEVSDLTSEDSAVYYCARGSNPYYYAMDYWGQGTSVTVSS VL: QIALTQEPAIMSASPGEKVTMTCSASSGVNYMHWYQQKPGTSPKRWIYDTSKLDSGVPARFSGSGSGTSYSLTISSMEAEDAATYYCHQRGSYTFGGGTKLEIK | – | – | – | – | – | 8 | 28 | 56 | 40 | 16
B4 VHv1/VKv2 antibody (antibody, V domains shown) VH: QVQLQQPGAEVVKPGASVRLSCETSGYTFTSNWMHWVKQRPDQGLEWIGEIDPSDSYTNYNQKFKGKAELTVDKSSSTAYMEVSDLTSEDSAVYYCARGSNPYYYAMDYWGQGTSVTVSS VL: DIVLTQSPATLSASPGEKVTMTCSASSGVNYMHWYQQKPGTSPKRWIYDTSKLDSGVPARFSGSGSGTSYSLTISSMEAEDAATYYCHQRGSYTFGGGTKLEIK | – | – | – | – | – | 12 | 32 | 56 | 44 | 20
